What was measured:
Experiment in all cases: cell-based or functional assay
[1] = target: HIV-1 Env of isolate MGRM-Chronic-B-012 (subtype B) (HIV-1)
[2] = target: HIV-1 Env of isolate CMU02 (clade AE), on pseudovirus (HIV-1)
[3] = target: HIV-1 envelope glycoprotein (Env) of isolate MGRM-C-023 (HIV-1)
[4] = target: HIV-1 envelope glycoprotein (Env) of isolate MGRM-C-008 (HIV-1)
[5] = target: HIV-1 Env of isolate 92WR020 (HIV-1)
[6] = target: HIV-1 envelope glycoprotein (Env) of isolate MGRM-C-007 (HIV-1)
[7] = target: HIV-1 Env of isolate JR-CSF (pseudovirus) (HIV-1) (UniProt P20871)
[8] = target: HIV-1 Env of isolate MG RM-D-011 (HIV-1)
[9] = target: HIV-1 Env of isolate 92UG114 (HIV-1)
[10] = target: HIV-1 Env of isolate MGRM-AG-005 (clade AG), on pseudovirus (HIV-1)
[11] = target: HIV-1 Env of isolate MGRM-D-001 (clade D), on pseudovirus (HIV-1)
[12] = target: HIV-1 Env of isolate MGRM-Chronic-B-018 (subtype B) (HIV-1)
[13] = target: HIV-1 Env of isolate MGRM-F1-016 (HIV-1)
[14] = target: HIV-1 Env of isolate 97ZA012 (HIV-1)
[15] = target: HIV-1 Env of isolate MGRM-D-016 (pseudovirus) (HIV-1)
[16] = target: HIV-1 Env of isolate MGRM-Chronic-B-002 (subtype B pseudovirus) (HIV-1)
[17] = target: HIV-1 Env of isolate MGRM-AE-008 (HIV-1)
[18] = target: HIV-1 Env of isolate MGRM-Chronic-B-024 (subtype B pseudovirus) (HIV-1)
[19] = target: HIV-1 Env of isolate SF162 (subtype B pseudovirus) (HIV-1) (UniProt P19550)
[20] = target: HIV-1 Env of isolate MGRM-D-020 (pseudovirus) (HIV-1)
[21] = target: HIV-1 Env of isolate MGRM-F1-010 (pseudovirus) (HIV-1)
[22] = target: HIV-1 Env of isolate MGRM-Chronic-B-004 (subtype B pseudovirus) (HIV-1)
[23] = target: HIV-1 JRCSF envelope glycoprotein (Env) on pseudovirus (HIV-1) (UniProt P20871)
[24] = target: HIV-1 Env of isolate MGRM-G-009 (HIV-1)
[25] = target: HIV-1 Env of isolate MGRM-G-013 (HIV-1)
[26] = target: HIV-1 Env of isolate MGRM-G-025 (HIV-1)
[27] = target: HIV-1 Env of isolate APV_17, clade B, on pseudovirus (HIV-1)
[28] = target: HIV-1 Env of pseudovirus MGRM-AE-008 (clade CRF01_AE) (HIV-1)
[29] = target: HIV-1 Env of isolate MGRM-D-020 (clade D pseudovirus) (HIV-1)
[30] = target: HIV-1 Env of isolate MGRM-D-024 (clade D pseudovirus) (HIV-1)
[31] = target: HIV-1 Env of isolate 93IN905 (HIV-1)
[32] = target: HIV-1 Env of pseudovirus MGRM-AE-006 (clade CRF01_AE) (HIV-1)
[33] = target: HIV-1 Env of pseudovirus MGRM-Chronic-B-010 (HIV-1)
[34] = target: HIV-1 Env of isolate MGRM-D-026 (clade D pseudovirus) (HIV-1)
[35] = target: HIV-1 Env of pseudovirus MGRM-AG-001 (clade CRF_AG) (HIV-1)
[36] = target: HIV-1 Env of pseudovirus MGRM-F1-014 (HIV-1)

Sequence of 5329_C19 (PGT-136) (antibody) (VH): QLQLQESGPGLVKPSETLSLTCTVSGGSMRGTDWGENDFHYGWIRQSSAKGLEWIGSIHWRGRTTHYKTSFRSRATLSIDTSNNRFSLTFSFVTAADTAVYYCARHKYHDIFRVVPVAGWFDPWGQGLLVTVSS
Sequence of 5329_C19 (PGT-136) (antibody) (VL): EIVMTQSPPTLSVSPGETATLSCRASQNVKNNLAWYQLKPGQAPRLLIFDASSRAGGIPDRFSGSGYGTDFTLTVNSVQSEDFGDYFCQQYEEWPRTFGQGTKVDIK
Sequence of 4970_K22 (PGT-144) (antibody) (VH): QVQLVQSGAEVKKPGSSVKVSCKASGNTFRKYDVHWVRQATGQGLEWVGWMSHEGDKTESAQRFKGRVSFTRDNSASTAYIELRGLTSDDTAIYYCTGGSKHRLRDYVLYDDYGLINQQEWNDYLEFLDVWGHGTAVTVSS
Sequence of 4970_K22 (PGT-144) (antibody) (VL): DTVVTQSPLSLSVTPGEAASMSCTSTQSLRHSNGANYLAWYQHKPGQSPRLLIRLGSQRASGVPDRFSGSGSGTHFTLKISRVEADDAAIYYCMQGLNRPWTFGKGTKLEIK
Sequence of 5345_I01 (PGT-137) (antibody) (VH): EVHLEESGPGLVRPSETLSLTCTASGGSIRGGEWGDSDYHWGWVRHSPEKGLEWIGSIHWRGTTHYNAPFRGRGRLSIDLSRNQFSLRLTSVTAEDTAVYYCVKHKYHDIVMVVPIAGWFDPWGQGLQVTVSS
Sequence of 5345_I01 (PGT-137) (antibody) (VL): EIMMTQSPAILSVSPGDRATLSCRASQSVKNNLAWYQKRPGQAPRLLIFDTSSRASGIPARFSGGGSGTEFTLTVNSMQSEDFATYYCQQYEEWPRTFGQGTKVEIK
Sequence of 4993_K13 (PGT-141) (antibody) (VH): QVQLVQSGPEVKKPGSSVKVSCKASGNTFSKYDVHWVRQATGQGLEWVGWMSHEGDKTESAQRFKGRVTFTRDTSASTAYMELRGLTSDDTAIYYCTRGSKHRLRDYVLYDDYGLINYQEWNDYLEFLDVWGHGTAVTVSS
Sequence of 4993_K13 (PGT-141) (antibody) (VL): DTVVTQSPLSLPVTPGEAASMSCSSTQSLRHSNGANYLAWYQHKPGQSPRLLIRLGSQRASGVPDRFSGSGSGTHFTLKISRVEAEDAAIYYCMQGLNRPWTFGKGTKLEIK
Sequence of 4995_E20 (PGT-142) (antibody) (VH): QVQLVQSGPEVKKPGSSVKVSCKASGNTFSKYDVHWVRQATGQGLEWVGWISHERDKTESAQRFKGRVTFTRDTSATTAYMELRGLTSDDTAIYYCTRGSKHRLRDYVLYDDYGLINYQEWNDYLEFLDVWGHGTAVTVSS
Sequence of 4980_N08 (PGT-143) (antibody) (VH): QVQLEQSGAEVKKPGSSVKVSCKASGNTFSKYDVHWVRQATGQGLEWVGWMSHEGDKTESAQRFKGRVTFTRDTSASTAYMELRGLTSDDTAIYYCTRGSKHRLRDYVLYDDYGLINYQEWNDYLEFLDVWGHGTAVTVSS
Sequence of 4980_N08 (PGT-143) (antibody) (VL): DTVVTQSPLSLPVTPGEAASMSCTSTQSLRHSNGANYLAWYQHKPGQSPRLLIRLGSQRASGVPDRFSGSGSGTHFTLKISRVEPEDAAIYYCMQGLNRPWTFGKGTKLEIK

| Substance | IC50, pseudovirus neutralization [2] | Primary Neutralization Index (B cell culture supernatant) [7] | IC50, pseudovirus neutralization [10] | IC50, pseudovirus neutralization [11] | IC50 (µg/mL), pseudovirus neutralization [13] | neutralization IC50 [14] | IC50, pseudovirus neutralization [15] | IC50 (µg/mL), pseudovirus neutralization [16] | IC50 [17] | IC50 (µg/mL), pseudovirus neutralization [18] | IC50 (µg/mL), pseudovirus neutralization [19] | IC50, pseudovirus neutralization [20] | IC50, pseudovirus neutralization [21] | IC50 (µg/mL), pseudovirus neutralization [22] | IC50 (µg/mL), pseudovirus neutralization [24] | IC50 (µg/mL), pseudovirus neutralization [25] | IC50 (µg/mL), pseudovirus neutralization [26] | further results |
| --- | --- | --- | --- | --- | --- | --- | --- | --- | --- | --- | --- | --- | --- | --- | --- | --- | --- | --- |
| 5329_C19 (PGT-136) (antibody) | > 10 µg/mL | 0.9 | > 10 µg/mL | > 10 µg/mL | – | – | – | – | – | – | – | – | – | – | – | – | – | IC50 neutralization [1]: 43.1 µg/mL; IC50 (µg/mL), pseudovirus neutralization [3]: 3.2 µg/mL; IC50 (µg/mL), pseudovirus neutralization [4]: > 50 µg/mL; IC50 [5]: 2.33 µg/mL; IC50 (µg/mL), pseudovirus neutralization [6]: > 50 µg/mL; IC50 (µg/mL), pseudovirus neutralization [8]: > 50 µg/mL; IC50 (µg/mL), pseudovirus neutralization [9]: > 50 µg/mL; IC50 neutralization [12]: > 50 µg/mL |
| 5145_B14 (PGT-127) (antibody) | – | 31.1 | – | – | > 50 µg/mL | > 50 µg/mL | > 50 µg/mL | 0.279 µg/mL | > 50 µg/mL | > 50 µg/mL | 0.019 µg/mL | 0.015 µg/mL | > 50 µg/mL | 0.018 µg/mL | – | – | – | Polyclonal Transfectant Neutralization Index [7]: 1.61 |
| 5345_I01 (PGT-137) (antibody) | – | 1.1 | – | – | – | – | – | – | – | – | – | – | – | – | – | – | – | IC50 neutralization [1]: > 50 µg/mL; IC50 (µg/mL), pseudovirus neutralization [3]: 0.23 µg/mL; IC50 (µg/mL), pseudovirus neutralization [4]: > 50 µg/mL; IC50 [5]: 0.005 µg/mL; IC50 (µg/mL), pseudovirus neutralization [6]: > 50 µg/mL; IC50 (µg/mL), pseudovirus neutralization [8]: 6.3 µg/mL; IC50 (µg/mL), pseudovirus neutralization [9]: > 50 µg/mL; IC50 neutralization [12]: > 50 µg/mL |
| 5343_B08 (PGT-135) (antibody) | > 10 µg/mL | 1.8 | > 10 µg/mL | > 10 µg/mL | – | – | – | – | – | – | – | – | – | – | – | – | – | IC50 neutralization [1]: 0.166 µg/mL; IC50 (µg/mL), pseudovirus neutralization [3]: 0.061 µg/mL; IC50 (µg/mL), pseudovirus neutralization [4]: > 50 µg/mL; IC50 [5]: 0.067 µg/mL; IC50 (µg/mL), pseudovirus neutralization [6]: > 50 µg/mL; IC50 (µg/mL), pseudovirus neutralization [8]: 23.5 µg/mL; IC50 (µg/mL), pseudovirus neutralization [9]: 1.29 µg/mL; IC50 neutralization [12]: > 50 µg/mL |
| 4877_D15 (PGT-122) (antibody) | > 10 µg/mL | – | > 10 µg/mL | 0.867 µg/mL | 4.81 µg/mL | 0.004 µg/mL | > 50 µg/mL | 1.8 µg/mL | > 50 µg/mL | 2.31 µg/mL | 0.009 µg/mL | 0.007 µg/mL | 0.024 µg/mL | 0.008 µg/mL | – | – | – | – |
| 4858_P08 (PGT-123) (antibody) | > 10 µg/mL | 1.6 | 0.104 µg/mL | 0.215 µg/mL | 4.95 µg/mL | 0.002 µg/mL | > 50 µg/mL | 0.234 µg/mL | > 50 µg/mL | > 50 µg/mL | 0.005 µg/mL | 0.018 µg/mL | 0.016 µg/mL | 0.008 µg/mL | – | – | – | neutralization IC50 [23]: 0.0423 µg/mL; neutralization IC80 [23]: 0.143 µg/mL; neutralization IC90 [23]: 0.289 µg/mL; neutralization IC95 [23]: 0.547 µg/mL |
| 4838_L06 (PGT-121) (antibody) | > 10 µg/mL | – | – | – | 0.931 µg/mL | 0.002 µg/mL | > 50 µg/mL | 0.386 µg/mL | > 50 µg/mL | 0.195 µg/mL | 0.005 µg/mL | 0.01 µg/mL | 0.016 µg/mL | 0.009 µg/mL | – | – | – | – |
| 4980_N08 (PGT-143) (antibody) | – | – | – | – | – | – | – | – | – | – | – | – | – | – | 2.97 µg/mL | > 50 µg/mL | > 50 µg/mL | – |
| 4970_K22 (PGT-144) (antibody) | – | – | – | – | – | – | – | – | – | – | – | – | – | – | > 50 µg/mL | > 50 µg/mL | > 50 µg/mL | – |
| 5136_H01 (PGT-131) (antibody) | – | 6.2 | – | – | – | – | – | – | – | – | – | – | – | – | – | – | – | IC50 neutralization [1]: 15.7 µg/mL; IC50 (µg/mL), pseudovirus neutralization [3]: 0.143 µg/mL; IC50 (µg/mL), pseudovirus neutralization [4]: > 50 µg/mL; IC50 [5]: 0.168 µg/mL; IC50 (µg/mL), pseudovirus neutralization [6]: > 50 µg/mL; IC50 (µg/mL), pseudovirus neutralization [8]: 0.756 µg/mL; IC50 (µg/mL), pseudovirus neutralization [9]: > 50 µg/mL; IC50 neutralization [12]: > 50 µg/mL |
| 4995_E20 (PGT-142) (antibody) | – | – | – | – | – | – | – | – | – | – | – | – | – | – | 2.81 µg/mL | > 50 µg/mL | > 50 µg/mL | – |
| 5141_B17 (PGT-126) (antibody) | > 10 µg/mL | 1410 | 1.35 µg/mL | 0.0639 µg/mL | > 50 µg/mL | 0.042 µg/mL | > 50 µg/mL | 0.078 µg/mL | > 50 µg/mL | > 50 µg/mL | 0.003 µg/mL | 0.023 µg/mL | > 50 µg/mL | 0.01 µg/mL | – | – | – | IC80 (pseudovirus neutralization) [23]: 0.018 µg/mL; IC90 (pseudovirus neutralization) [23]: 0.0339 µg/mL; IC95 (pseudovirus neutralization) [23]: 0.0608 µg/mL; Polyclonal Transfectant Neutralization Index [7]: 102 |
| 1496_C09 (PG9) (TCN-109) (antibody) | – | – | – | – | – | – | – | – | – | – | – | – | – | – | 10.7 µg/mL | – | – | IC50 (µg/ml), pseudovirus neutralization [27]: 14.6 µg/mL; IC50 [28]: 10.6 µg/mL; IC50 (µg/ml), pseudovirus neutralization [29]: 2.03 µg/mL; IC50, pseudovirus neutralization [23]: < 0.0025 µg/mL; IC90 (pseudovirus neutralization) [23]: < 0.0025 µg/mL; IC50 (µg/ml), pseudovirus neutralization [30]: 0.03 µg/mL; IC50 [31]: 0.03 µg/mL; IC50 [32]: 0.05 µg/mL; IC50 (µg/ml), pseudovirus neutralization [33]: 0.004 µg/mL; IC50 (µg/ml), pseudovirus neutralization [34]: 17.5 µg/mL; IC50 [35]: 8.83 µg/mL; IC50 (µg/ml), pseudovirus neutralization [36]: 0.01 µg/mL |
| VRC01 (antibody) | – | – | – | – | – | – | – | – | – | – | – | – | – | – | 0.073 µg/mL | 0.553 µg/mL | 0.292 µg/mL | IC50 [13]: 0.517 µg/mL; IC50 [8]: 0.075 µg/mL |
| PGV04 (antibody) | – | – | – | – | – | – | – | – | – | – | – | – | – | – | 0.043 µg/mL | 0.168 µg/mL | 1.61 µg/mL | – |
| 5123_A06 (PGT-125) (antibody) | > 10 µg/mL | 1730 | > 10 µg/mL | 2.31 µg/mL | > 50 µg/mL | 2.46 µg/mL | 0.12 µg/mL | 0.064 µg/mL | > 50 µg/mL | > 50 µg/mL | 0.004 µg/mL | > 50 µg/mL | > 50 µg/mL | 0.007 µg/mL | – | – | – | Polyclonal Transfectant Neutralization Index [7]: 119 |
| 5114_A19 (PGT-128) (antibody) | – | 77.5 | – | – | – | – | – | – | – | – | – | – | – | – | – | – | – | IC50 neutralization [1]: 0.026 µg/mL; IC50 (µg/mL), pseudovirus neutralization [3]: 0.026 µg/mL; IC50 (µg/mL), pseudovirus neutralization [4]: 0.373 µg/mL; IC50 [5]: 0.005 µg/mL; IC50 (µg/mL), pseudovirus neutralization [6]: 0.111 µg/mL; Polyclonal Transfectant Neutralization Index [7]: 136; IC50 (µg/mL), pseudovirus neutralization [8]: 0.007 µg/mL; IC50 (µg/mL), pseudovirus neutralization [9]: 0.083 µg/mL; IC50 neutralization [12]: 0.02 µg/mL |
| 4993_K13 (PGT-141) (antibody) | – | – | – | – | – | – | – | – | – | – | – | – | – | – | 1.89 µg/mL | > 50 µg/mL | > 50 µg/mL | – |
